Test results taken from paper PMC5986005, “Catalysis of transthiolacylation in the active centers of dihydrolipoamide acyltransacetylase components of 2‐oxo acid dehydrogenase complexes” (FEBS Open Bio, 2018).
Numbering of substitutions follows the chain as printed. Names may count otherwise.

B1: OGDHc assembled from E1o, E2o and E3 (CoA site on E2o) (Escherichia coli K-12; H376W) (protein)
chain: SSVDILVPDLPESVADATVATWHKKPGDAVVRDEVLVEIETDKVVLEVPASADGILDAVLEDEGTTVTSRQILGRLREGNSAGKETSAKSEEKASTPAQRQQASLEEQNNDALSPAIRRLLAEHNLDASAIKGTGVGGRLTREDVEKHLAKAPAKESAPAAAAPAAQPALAARSEKRVPMTRLRKRVAERLLEAKNSTAMLTTFNEVNMKPIMDLRKQYGEAFEKRHGIRLGFMSFYVKAVVEALKRYPEVNASIDGDDVVYHNYFDVSMAVSTPRGLVTPVLRDVDTLGMADIEKKIKELAVKGRDGKLTVEDLTGGNFTITNGGVFGSLMSTPIINPPQSAILGMHAIKDRPMAVNGQVEILPMMYLALSYDWRLIDGRESVGFLVTIKELLEDPTRLLLDV
notes: components expressed separately in E. coli (pCA24N in AG1 for E1o and E2o) and reassembled at E1o:E2o:E3 mass ratio 1:1:1; with 2-oxoglutarate dehydrogenase E1 component; Dihydrolipoyl dehydrogenase
B2: OGDHc assembled from E1o, E2o and E3 (CoA site on E2o) (Escherichia coli K-12; H376G) (protein)
chain: B1 chain with W375G
notes: as for B1
B3: OGDHc assembled from E1o, E2o and E3 (CoA site on E2o) (Escherichia coli K-12; D380A) (protein)
chain: B1 chain with W375H, D379A
notes: as for B1
B4: OGDHc assembled from E1o, E2o and E3 (CoA site on E2o) (Escherichia coli K-12; R377A) (protein)
chain: B1 chain with W375H, R376A
notes: as for B1
B5: OGDHc assembled from E1o, E2o and E3 (CoA site on E2o) (Escherichia coli K-12; T324A) (protein)
chain: B1 chain with T323A, W375H
notes: as for B1
B6: OGDHc assembled from E1o, E2o and E3 (CoA site on E2o) (Escherichia coli K-12) (protein)
chain: B1 chain with W375H
notes: as for B1
B7: OGDHc assembled from E1o, E2o and E3 (2-oxoglutarate site on E1o) (Escherichia coli K-12) (protein)
chain: MQNSALKAWLDSSYLSGANQSWIEQLYEDFLTDPDSVDANWRSTFQQLPGTGVKPDQFHSQTREYFRRLAKDASRYSSTISDPDTNVKQVKVLQLINAYRFRGHQHANLDPLGLWQQDKVADLDPSFHDLTEADFQETFNVGSFASGKETMKLGELLEALKQTYCGPIGAEYMHITSTEEKRWIQQRIESGRATFNSEEKKRFLSELTAAEGLERYLGAKFPGAKRFSLEGGDALIPMLKEMIRHAGNSGTREVVLGMAHRGRLNVLVNVLGKKPQDLFDEFAGKHKEHLGTGDVKYHMGFSSDFQTDGGLVHLALAFNPSHLEIVSPVVIGSVRARLDRLDEPSSNKVLPITIHGDAAVTGQGVVQETLNMSKARGYEVGGTVRIVINNQVGFTTSNPLDARSTPYCTDIGKMVQAPIFHVNADDPEAVAFVTRLALDFRNTFKRDVFIDLVCYRRHGHNEADEPSATQPLMYQKIKKHPTPRKIYADKLEQEKVATLEDATEMVNLYRDALDAGDCVVAEWRPMNMHSFTWSPYLNHEWDEEYPNKVEMKRLQELAKRISTVPEAVEMQSRVAKIYGDRQAMAAGEKLFDWGGAENLAYATLVDEGIPVRLSGEDSGRGTFFHRHAVIHNQSNGSTYTPLQHIHNGQGAFRVWDSVLSEEAVLAFEYGYATAEPRTLTIWEAQFGDFANGAQVVIDQFISSGEQKWGRMCGLVMLLPHGYEGQGPEHSSARLERYLQLCAEQNMQVCVPSTPAQVYHMLRRQALRGMRRPLVVMSPKSLLRHPLAVSSLEELANGTFLPAIGEIDELDPKGVKRVVMCSGKVYYDLLEQRRKNNQHDVAIVRIEQLYPFPHKAMQEVLQQFAHVKDFVWCQEEPLNQGAWYCSQHHFREVIPFGASLRYAGRPASASPAVGYMSVHQKQQQDLVNDALNVE
notes: components expressed separately in E. coli (pCA24N in AG1 for E1o and E2o; E1o purified on Ni-Sepharose) and reassembled at E1o:E2o:E3 mass ratio 1:1:1; with Dihydrolipoyllysine-residue succinyltransferase component of 2-oxoglutarate dehydrogenase complex; Dihydrolipoyl dehydrogenase

Experiments:
E2o = biological target: T1, E2o (Escherichia coli, UniProt P0AFG6, H376W); assay: intrinsic Trp fluorescence quenching (ex […] nm); format: binding
T1 construct: gene sucB; full-length E2o alone, pCA24N plasmid, expressed in E. coli, PEG precipitation and size exclusion

[1] = biological target: T2, E1o (with LDo as acyl acceptor) (Escherichia coli, UniProt P0AFG3); assay: reductive acylation of LDo, ESI FT-MS; format: biochemical
T2 construct: gene sucA; E1o purified on Ni-Sepharose; acceptor is the separate E2o lipoyl domain (residues 1-105, His6-tagged, lipoylated in vitro); with Dihydrolipoyllysine-residue succinyltransferase component of 2-oxoglutarate dehydrogenase complex

[2] = biological target: T3, CDo (E2o catalytic domain) (Escherichia coli, UniProt P0AFG6); assay: reverse succinyl transfer to dihydro-LDo, ESI FT-MS; format: biochemical; settings: 40 μM dihydro-LDo, 0.10 mM TCEP, 0.15 mM succinyl-CoA, 35 mM NH4HCO3 pH 7.5, 30 °C
T3 construct: gene sucB; separate dihydro-LDo (residues 1-105) as acyl acceptor

purified protein [3] = substrate: CC(C)(COP(=O)(O)OP(=O)(O)OC[C@H]1O[C@@H](n2cnc3c(N)ncnc32)[C@H](O)[C@@H]1OP(=O)(O)O)[C@@H](O)C(=O)NCCC(=O)NCCS; assay: purified protein; format: biochemical, Escherichia coli; settings: 2-oxoglutarate, NAD+, ThDP, Mg2+, kcat of overall reaction
purified protein [4] = substrate: O=C(O)CCC(=O)C(=O)O; assay: purified protein; format: biochemical, Escherichia coli; settings: reassembled complex with wild-type E2o; CoA, NAD+, ThDP, Mg2+; kcat of overall reaction
[5] = reassembled complex with wild-type E2o

T3 sequence (P0AFG6 94-405): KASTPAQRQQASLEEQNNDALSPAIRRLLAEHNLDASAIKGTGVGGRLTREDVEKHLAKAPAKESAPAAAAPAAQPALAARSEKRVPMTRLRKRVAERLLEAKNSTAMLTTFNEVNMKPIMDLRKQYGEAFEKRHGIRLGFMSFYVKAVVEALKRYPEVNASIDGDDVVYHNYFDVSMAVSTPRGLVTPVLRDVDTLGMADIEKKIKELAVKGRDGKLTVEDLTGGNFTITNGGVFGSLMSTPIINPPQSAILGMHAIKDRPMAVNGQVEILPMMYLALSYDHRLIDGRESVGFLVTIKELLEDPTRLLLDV

| Molecule | Km (purified protein [3]; reassembled complex) [µM] | kcat (purified protein [3]; reassembled complex) [s⁻¹] | also measured |
| --- | --- | --- | --- |
| CC(C)(COP(=O)(O)OP(=O)(O)OC[C@H]1O[C@@H](n2cnc3c(N)ncnc32)[C@H](O)[C@@H]1OP(=O)(O)O)[C@@H](O)C(=O)NCCC(=O)NCCS [CoA, coenzyme A] | – | – | Kd (E2o): 61.2 µM |
| O=C(O)CCCC(=O)C(=O)O [OA, 2-oxoadipate] | – | – | reductive acylation of LDo, ESI FT-MS ([1]; 100 μM LDo, 0.1 mM ThDP, 0.5 mM MgCl2, 35 mM NH4HCO3 pH 7.5, 2.5 mM OA): could also be used by E1o as substrates for reductive acylation of LDo |
| CC(C)(COP(=O)(O)OP(=O)(O)OC[C@H]1O[C@@H](n2cnc3c(N)ncnc32)[C@H](O)[C@@H]1OP(=O)(O)O)[C@@H](O)C(=O)NCCC(=O)NCCSC(=O)CCC(=O)O [succinyl-CoA, succinyl-coenzyme A] | – | – | reverse succinyl transfer to dihydro-LDo, ESI FT-MS [2]: rate of succinyl transfer from succinyl‐CoA to the dihydro‐LDo; Kd (E2o): 47 µM |
| CC(=O)C(=O)O [pyruvate] | – | – | reductive acylation of LDo, ESI FT-MS ([1]; LDo as acyl acceptor, ThDP, Mg2+): could also be used by E1o as substrates for reductive acylation of LDo |
| B1 | 13.3 | 28.8 | – |
| B2 | 20.6 | 5.76 | – |
| B3 | 21.1 | 4.6 | – |
| B4 | 19.8 | 27.0 | – |
| B5 | 23.3 | 21.7 | – |
| B6 | – | – | Km (purified protein [3]; [5]): 20.4 µM; kcat (purified protein [3]; [5]): 48.0 s⁻¹ |
| B7 | – | – | Km (purified protein [4]): 50 ± 11 µM; kcat (purified protein [4]): 48.0 s⁻¹; kcat/Km (purified protein [4]): 1.07e+06 M⁻¹ s⁻¹ |
